Source: patent US20240277871A1 (University of Pennsylvania, published 2024)
Positions count from the first letter of the chain named. Names and notes keep the numbering of the source.

T1: mac251 gp120 (Immune Technology Corp.) (SIV mac251, UniProt P08810 20-527)
T1 construct: Coated on ELISA plates at 2 ug/mL; also called SIV mac251 gp120
T1 sequence: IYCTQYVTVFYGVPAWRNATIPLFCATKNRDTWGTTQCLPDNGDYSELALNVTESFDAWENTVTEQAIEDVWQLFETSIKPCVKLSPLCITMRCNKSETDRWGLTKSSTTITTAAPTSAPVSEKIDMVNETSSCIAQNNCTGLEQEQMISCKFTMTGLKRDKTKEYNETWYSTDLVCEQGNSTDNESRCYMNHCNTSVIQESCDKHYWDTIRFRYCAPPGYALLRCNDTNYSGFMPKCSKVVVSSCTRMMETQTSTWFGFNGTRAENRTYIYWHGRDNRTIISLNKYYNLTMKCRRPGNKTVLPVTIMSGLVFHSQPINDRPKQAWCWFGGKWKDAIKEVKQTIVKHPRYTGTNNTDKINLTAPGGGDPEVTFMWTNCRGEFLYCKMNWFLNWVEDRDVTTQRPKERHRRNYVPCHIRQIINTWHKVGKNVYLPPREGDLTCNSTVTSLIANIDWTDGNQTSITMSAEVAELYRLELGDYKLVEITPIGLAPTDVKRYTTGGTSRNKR

B1: rhesus macaque anti-SIV mac251 gp120 IgG-201 immunoadhesin (201IA) (Fc fusion)
chain: EVQLLESGPGLVKPSETLSLTCAVSGLSISSDFSWAWIRQTPGKALEYVGYIRGNTGDTYYNPSLKSRLTISKDTSKNQIYLNLSSVTAGDAAVYYCARDRVCDDDYGYYYTEVCFGLDSWGQGIVVTVSSGGGGSGGGGSGGGGSAELVMTQSPLSLSVAPGQTASISCRSSQSLDYANGNTYLSWFHQRPGQPPRRLIYQISNRDSGVPDRFSGSGAGTEFTLRISRMESDDVGIYYCGQGTTFPRTFGQGTKVEIKTCGGGSKPPTCPPCTSPELLGGPSVFLFPPKPKDTLMISRTPEVTCVVVDVSQEDPDVKFNWYVNGAEVHHAQTKPRETQYNSTYRVVSVLTVTHQDWLNGKEYTCKVSNKALPAPIQKTISKDKGQPREPQVYTLPPSREELTKNQVSLTCLVKGFYPSDIVVEWESSGQPENTYKTTPPVLDSDGSYFLYSKLTVDKSRWQQGNVFSCSVMHEALHNHYTQKSLSLSPGK
notes: also called 201 anti-SIV immunoadhesin; 201IA standard protein produced in-house
B2: 201IA(I253A) (Fc fusion)
chain: B1 chain with I297A
notes: No leader limits are stated; Expressed in HEK293 cells and purified on Protein A; also called I253A 201IA mutant

Biological target: T1, mac251 gp120 (Immune Technology Corp.)
Experiment: ELISA, mac251 gp120 coated at 2 ug/mL, immunoadhesin at 50 ng/mL, detected with anti-human IgG-biotin and streptavidin-HRP

| Binder | binding result |
| --- | --- |
| B1 | binds |
| B2 | binds |
